Where two headings read alike, the source gives them in different places.
Assays:
[1] = biological target: T1, PABP1 (Homo sapiens, UniProt P11940 1-636); assay: EMSA
[2] = biological target: T1, PABP1; assay: EMSA; remark: listed apart in the source
[3] = biological target: human polyadenylate binding protein 1 (PABP1) (human, UniProt P11940 1-636); assay: native gel or EMSA
Chain of human polyadenylate binding protein 1 (PABP1) (P11940 whole entry): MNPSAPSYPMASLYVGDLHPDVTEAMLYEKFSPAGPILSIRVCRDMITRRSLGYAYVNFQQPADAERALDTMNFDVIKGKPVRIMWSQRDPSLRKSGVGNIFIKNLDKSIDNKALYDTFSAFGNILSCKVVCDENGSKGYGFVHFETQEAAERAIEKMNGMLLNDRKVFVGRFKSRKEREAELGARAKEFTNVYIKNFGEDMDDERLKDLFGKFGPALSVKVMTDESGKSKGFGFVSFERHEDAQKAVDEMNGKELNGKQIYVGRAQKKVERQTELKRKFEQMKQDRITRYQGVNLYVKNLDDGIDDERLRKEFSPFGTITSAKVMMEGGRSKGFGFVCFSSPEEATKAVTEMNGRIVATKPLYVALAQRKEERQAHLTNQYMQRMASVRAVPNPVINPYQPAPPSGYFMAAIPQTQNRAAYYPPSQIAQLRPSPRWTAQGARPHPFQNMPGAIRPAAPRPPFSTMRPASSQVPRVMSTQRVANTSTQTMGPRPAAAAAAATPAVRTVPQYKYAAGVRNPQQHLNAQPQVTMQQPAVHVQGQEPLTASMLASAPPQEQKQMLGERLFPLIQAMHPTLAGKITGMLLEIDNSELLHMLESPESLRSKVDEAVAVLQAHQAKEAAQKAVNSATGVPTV

T1 sequence (P11940 whole entry): as above

B1: ssCR1 (ssRNA)
RNA: GCUAUCCAGAUUCUGAUU
Question: Does B1 bind [1]?
Answer: no binding

B2: Poly(A)18 (ssRNA)
RNA: AAAAAAAAAAAAAAAAAA
Question: Does B2 bind [2]?
Answer: binds

B3: human eIF4G1 fragment (88–653) (domain or fragment, UniProt Q04637-1 88-653, looked up)
chain: MMIPSQISYPASQGAYYIPGQGRSTYVVPTQQYPVQPGAPGFYPGASPTEFGTYAGAYYPAQGVQQFPTGVAPTPVLMNQPPQIAPKRERKTIRIRDPNQGGKDITEEIMSGARTASTPTPPQTGGGLEPQANGETPQVAVIVRPDDRSQGAIIADRPGLPGPEHSPSESQPSSPSPTPSPSPVLEPGSEPNLAVLSIPGDTMTTIQMSVEESTPISRETGEPYRLSPEPTPLAEPILEVEVTLSKPVPESEFSSSPLQAPTPLASHTVEIHEPNGMVPSEDLEPEVESSPELAPPPACPSESPVPIAPTAQPEELLNGAPSPPAVDLSPVSEPEEQAKEVTASMAPPTIPSATPATAPSATSPAQEEEMEEEEEEEEGEAGEAGEAESEKGGEELLPPESTPIPANLSQNLEAAAATQVAVSVPKRRRKIKELNKKEAVGDLLDAFKEANPAVPEVENQPPAGSNPGPESEGSGVPPRPEEADETWDSKEDKIHNAENIQPGEQKYEYKSDQWKPLNLEEKKRYDREFLLGFQFIFASMQKPEGLPHISDVVLDKANKTPLRPLDT
Question: Does B3 bind [3]?
Answer: binds
